This data set has as its system CC(C)=CCC/C(C)=C/CC/C(C)=C/CO[P@@](=O)(O)OP(=O)(O)O. Put plainly: fluorometric inorganic phosphate release assay (pyrophosphatase). The note with it: 20 mM Tris-HCl pH 8.0, 30°C, 24 h, 3 µM enzyme, 0-150 µM FPP. Format: biochemical, Actinomyces oris.

This is an account of results in publication PMC6381275, “Structure and Mechanism of LcpA, a Phosphotransferase That Mediates Glycosylation of a Gram-Positive Bacterial Cell Wall-Anchored Protein” (mBio, 2019).

The term Km denotes the concentration of substrate that gives half-maximal velocity. As to “LcpA (eLcpA, recombinant extracellular LCP domain) (Actinomyces oris)”, the Km is recorded as 15.2 ± 3.7 µM.
